Data from patent publication US20230348607A1 (EXELIXIS, published 2023).

Tests used:
human AMHR-II-ECD-Fc = biological target: T1, human AMHR-II-ECD-Fc (human, UniProt Q16671 18-149); assay: ELISA, coated human AMHR-II-ECD-Fc, detection with HRP anti-human F(ab')2
T1 construct: Bought reagent (R&D Systems); Only its extracellular domain stood in the assay; also called extracellular domain of human AMHR-II receptor; not shown: Fc part of the bought fusion protein (R&D Systems)
Method: (§1) The binding capacity of the anti-AMHR-II 4A3 antibody was evaluated by ELISA. ELISA plates (96 wells, Maxisorp, Nunc) were coated overnight at +4° C. with 100 ng per well of human AMHR-II-ECD-Fc, rat AMHR-II-ECD-Fc or human ALK3-ECD-Fc (R&D Systems).
(§2) Coated plates were blocked with PBS-BSA 2% for 1 hour at 37° C. and washed three times with PBS-Tween20 0.05%. The anti-AMHR-II 4A3 antibody was serially diluted in PBST-BSA1% and incubated for 1 hour at 37° C. The bound anti-AMHR-II 4A3 was detected by adding HRP-conjugated F(ab′)2 goat anti-human F(ab′)2 fragment specific (Interchim) diluted at 1:10000 and incubated for one hour at 37° C. Revelation was done with TMB (Sigma) and the reaction was stopped by adding H₂SO₄ 1N (v:v). Absorbances were measured at 450 nm and binding data curves were analysed using GraphPad Prism 8 software.

human ALK3-ECD-Fc = biological target: T2, human ALK3-ECD-Fc (human, UniProt P36894 24-152); assay: ELISA, 100 ng per well coated Fc fusion, serially diluted 4A3
T2 construct: extracellular domain; Bought reagent (R&D Systems), used as negative control; also called human ALK3 receptor; negative control; not shown: Fc part of the bought fusion protein (R&D Systems)
T2 sequence (P36894 24-152): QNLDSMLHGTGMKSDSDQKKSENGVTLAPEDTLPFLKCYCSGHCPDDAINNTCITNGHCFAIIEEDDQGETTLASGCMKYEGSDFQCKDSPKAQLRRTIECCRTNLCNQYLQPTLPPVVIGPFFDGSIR
Method: as §1, §2

rat AMHR-II-ECD-Fc = biological target: T3, rat AMHR-II-ECD-Fc (rat, UniProt Q62893 18-144); assay: as above
T3 construct: extracellular domain; Bought reagent (R&D Systems); also called rat AMHR-II receptor; not shown: Fc part of the bought fusion protein (R&D Systems)
T3 sequence (looked up): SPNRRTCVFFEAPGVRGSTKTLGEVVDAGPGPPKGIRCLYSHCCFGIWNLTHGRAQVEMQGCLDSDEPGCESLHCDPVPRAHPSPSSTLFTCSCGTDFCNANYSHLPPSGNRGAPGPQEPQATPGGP
Method: as §1, §2

[1] = biological target: T4, human AMHR-II receptor expressed at the surface of the COV434-AMHR-II transfected cell line (human, UniProt Q16671 18-573); assay: flow cytometry on COV434 AMHR-II transfected cells, 67 nM to 0.2 pM, one-site specific binding fit
T4 sequence: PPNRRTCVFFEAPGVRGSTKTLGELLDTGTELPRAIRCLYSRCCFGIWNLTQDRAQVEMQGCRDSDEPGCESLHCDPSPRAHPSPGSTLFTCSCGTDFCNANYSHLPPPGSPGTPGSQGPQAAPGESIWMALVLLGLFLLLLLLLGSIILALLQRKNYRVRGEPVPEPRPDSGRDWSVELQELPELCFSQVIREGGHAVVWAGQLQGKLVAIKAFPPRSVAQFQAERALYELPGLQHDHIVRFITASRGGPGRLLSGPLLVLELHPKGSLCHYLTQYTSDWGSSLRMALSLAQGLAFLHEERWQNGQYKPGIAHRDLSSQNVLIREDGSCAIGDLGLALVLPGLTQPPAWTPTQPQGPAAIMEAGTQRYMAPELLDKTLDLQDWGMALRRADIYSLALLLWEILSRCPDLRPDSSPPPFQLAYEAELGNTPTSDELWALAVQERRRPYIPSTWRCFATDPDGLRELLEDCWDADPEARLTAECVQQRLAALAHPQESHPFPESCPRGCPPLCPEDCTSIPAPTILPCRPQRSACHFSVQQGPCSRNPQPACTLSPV
Method: For Fluorescent-activated cell sorting (FACS) analysis, 3×10⁵ cells were incubated for 1 hour at 4° C. with 10 μg/ml of 4A3 antibody (FIG. 2A) or with a range of 4A3 concentrations (from 67 nM to 0.2 pM, FIG. 2B). After washes, Phycoerythrin-conjugated anti-human IgG antibody (1:200, Interchim) was added for 1 hour at 4° C. FACS analysis of the resuspended cells was done on a BD Accuri™ C6 flow cytometer (BD Bioscience). Binding affinity were determined using GraphPad Prism 8 with “one-site specific binding” fit equation.

EC50 (human AMHR-II-ECD-Fc): 6 nM
binding result (human ALK3-ECD-Fc): no binding
binding result (rat AMHR-II-ECD-Fc): no binding
Kd [1]: 2.1 nM
B1: anti-AMHR-II 4A3 antibody (antibody, human IgG1, lambda, V domains shown)
VH: EVQLVESGGSLVKPGGSLRLSCAASGFTFSNNAMNWVRQAPGKGLEWISYISGSSRYISYADFVKGRFTISRDNAKNSLYLQMNSLRAEDTAVYYCVRSSDDYFGGGMDVWGRGTLVTVSS
VL: QSVLTQPASVSGSPGQSITISCAGTSSDVGGDNDVSWYQQHPGKAPKLMIYYDSYRPSGVSNRFSGSKSGNTASLTISGLQAEDEADYYCSSSTYYSTRVFGGGTKLTVLG
notes: The tie is therefore indirect; 4A3 was detected with anti-human F(ab')2 and anti-human IgG secondary reagents; also called antibody 4A3; 4A3 antagonist antibody
